The text below walks through data of a protein production outcome set (Wang et al. 2014).
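Also: failed if final PepcDB status was selected cloned or expressed and not failed if soluble or beyond.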

A short description of the series: label from the status in PepcDB records.
For “TATNHQGLPAVDSEILEMPPEKADGVVEGIDVNGPKAQLMLRYPDGKREQITLPEQAKLLALVKHVQSKGYPNERFELLTNFPRRKLSHLDYDITLQEAGLCPQETVFVQE”, the protein production entry is listed as “not failed”.

For the sequence “TDAFVFEGFLPTRGKRRLEKLANLKGEQRVVIFYEAPGRLQAALADMREVLGDRHVVVARELTKIHEEFVRGRVSFVAEHFAAVDVKGEVVILVAPAPAP”, the protein production result is reported as “failed”.

On to “TDINSLRTRLRSGEHAFADTLAFIADGYDYQPQPFRNGDVDNAAGQNEGSCKTLGLALLEGLSDEEALLAFGEHYRSVQATPEGSDHGNIRALIKHGLAGVTFEGEPLKRK”, for which the protein production entry is reported as “not failed”. To “TDPDADRLGVEIRQPDGSYKNLSGNQIGAIIAKYILEAHKTAGTLPENAALAKSIVSTELVTKIAESYGATMFNVLTGFKFIAEKIQEFEEKHNHTYMFGFEESFGYLIKPFVRDKDAIQAVLLVAEIAAYYRSRGLTLADGIDEIYKEYGYFAE” belongs “failed”. To “TDQAITFDDVLLVPSYNHHESRRVVETTSTDRLGKLTLNLPVISANMDTITESNMANFMHSKGAMGALHRFMTIEENIQEFKKCKGPVFVSVGCTENELQRAEALRDAGADFFCVDVAHAHAKYVGKTLKSLRQLLGSRCIMAGNVATYAGADYLASCGADIIKAGIGGGSVCSTRIKTGFGVPMLTCIQDCSRADRSIVADGGIKTSGDIVKALAFGADFVMIGGMLAGSAPTPGEVFQKDDGSKVKRYRGMASREAQEAFLGQMHEWKTAEGVATEVPFKENPDGIIADIIGGLRSGLTYAGADSISELQRKLNYVIVTQAGRIESLPHKLLEG” belongs “not failed”; to “TEDSLMPEEEFLRRNKGPVSIKVQVPNMQDKTEWKLNGQGLVFTLPLTDQVSVIKVKIHEATGMPAGKQKLQYEGIFIKDSNSLAYYNMASGAVIHLALKER”, “not failed”; to “TEDTVIKVSVLRGPSVIAFADWLENPPIIDNKKVQVKVVDSPDLAQALLIKQETDIAVLPMINAANLYNKGIKIKLAGCPIWGTLYLVEKTPLKEPALYVFGNGTTPDILTRYYLGRQRLDYPLNYAFNTAGEITQGILAGKVNRAVLGEPFLSIALRKDSSLRITADLNHLTDNDTLGFAQTAVVYTPTMEKYRIAFEDALRASCQKAVRYPKETIHSLEEHGIFAQGALTPKSIERCKIYYLSAIEAKDAVMGFLRLIEQYEPKAVGGRLPDAGFIPEKQ”, “not failed”. The result for “TFDNLNSMNGKGSSTDGINYVFDSLMSSSLDEPGVMYPLLAKTATFDPEQTHFVIFELNPKARFSDGTPVTAQDVKFSFDTYQSKANPGLQMYISDLAKTEVLSKYRVKFSFKSQNNAEMPLILASLPIYSQKDWKNRDFTRVTLQPILGSGPYLIERIDPS” reads “failed”; that for “TFSYLAETDYPVFTLGGSTADAARRLAASGCACAPVLDGERYLGMVHLSRLLEGRKGWPTVKEKLGEELLETVRSYRPGEQLFDNLISVAAAKCSVVPLADEDGRYEGVVSRKRILGFLAERI”, “failed”. “TGALMASSPQDIKFQDLVVFILEKKMGTTRRALLMELARRKGFRVENELSDSVTHIVAENNSGSDVLEWLQAQKVQVSSQPELLDVSWLIECIGAGKPVEMTGKHQL”: the protein production result is reported as “not failed”. The result for “TGELEVVQQAVKEMNDPSQPNEEGITALHNAICGANYSIVDFLITAGANVNSPDSHGWTPLHCAASCNDTVICMALVQHGAAIFATTLSDGATAFEKCDPYREGYADCATYLADVEQSMGLMNSGAVYALWDYSAEFGDELSFREGESVTVLRRDGPEETDWWWAALHGQEGYVPRNYFGLFPRVKPQRSKV” reads “failed”; that for “TGNVCIEEIDVDGKFIRLKNTSEQDQPMGGWEMIRKIGDTSVSYKYTSRYVLKAGQTVTIWAANAGVTASPPTDLIWKNQNSWGTGEDVKVILKNSQGEEVAQRSTVFKTTIP”, “failed”.

Regarding “THGVVIIDVTKNENKVIYVNRAFERITGYGEQHALGKGLLTLLGSNLEEVNHKRIELAIRESKEETIEMESIKRNGEFYWCEISVAPVKDSF”, the protein production entry is “failed”. Turning to “TIEARTAQSTPSAPPQKVMCVSMGSTTVRVSWVPPPADSRNGVITQYSVAYEAVDGEDRGRHVVDGISREHSSWDLVGLEKWTEYRVWVRAHTDVGPGPESSPVLVRTDEDVPSGPPRKVE”, the protein production result is on record as “not failed”. Regarding “TIPEGLRAVVFDFDGTILDTETREFHHWQELYREHGRELALSDWQRGVGTWDAFDPWAGLPEQVQADRENVRARLHDTIVSDIAGQDLRPGVRAVLEGVKAAGLRLALATSSDREWVTRWMRQHNLLDLFEAVATRDDVRRVKPDPELYLLAAARLGLRPEECLAVEDSFNGATAAVAAGMRLVVVPNDVTRTQPFPAEWRRLEDGYAGGLAGLL”, the protein production result is “failed”. Regarding “TISSGVPPELPGPPTNLGISNIGPRSVTLQFRPGYDGKTSISRWLVEAQVGVVGEGEEWLLIHQLSNEPDARSMEVPDLNPFTCYSFRMRQVNIVGTSPPSQPSRKIQTLQ”, the protein production result is reported as “not failed”.

Consider “TKGEKKQESFLLEYVSANPTGPLHIGHARGAVFGDTLTRLARHLGYKFNTEYYVNDAGNQIYLLGLSILLSVKESILHENVEYPEQYYKGEYIVDLAKEAFEKFGKEFFSEENIPSLADWAKDKMLVLIKQNLEQAKIKIDSYVSERSYYDALNATLESLKEHKGIYEQEGKIWLASSQKGDEKDRVIIREDGRGTYLAADIVYHKDKMSRGYGKCINIWGADHHGYIPRMKAAMEFLGFDSNNLEIILAQMVSLLKDGEPYKMSKRAGNFILMSDVVDEIGSDALRYIFLSKKCDTHLEFDISDLQKEDSSNPVYYINYAHARIHQVFAKAGKKID”, for which the protein production entry is reported as “failed”. The result for “TLIYGHRGAKGEAPENTLASFQRCLEHGVNRCELDLHLSRDGELMVIHDPTLKRTTGRRGKVAEHDAATLATYDARKGGPGWVRPTPIPRLEELFEKCPFEHWQLEVKSASRERAARTVTRIRELTERFGNRDKVTVTSGSRTVLKALNELTPELSRGLVAEYAWLDPLKVAQHYGCALLALNWTLCTPERLLKAQRQGLHVSVWTVNEPALMRRLADFGVDSLITDFPGLASATLGNR” reads “failed”; that for “TMLRVRSRDGLERVSVDGPHITVSQLKTLIQDQLQIPIHNQTLSTNRNLLLAKSPSDFLAFTDMADPNLRISSLNLAHGSMVYLAYEGERTIRG”, “not failed”. To “TNDEETIQQQILALSADKRNFLRDPPAGVQFNFDFDQMYPVALVMLQEDELLSKMRFALVPKLVKEEVFWRNYFYRVSLIKQSAQLT” belongs “not failed”; to “TNNGKQFIHNDTMEGGKLVCREIYAMNDAASGILNPVKMYKYSYDTDQQKTVKSTYAWNIFKNTWETESRTVISRYETETSVEYSVWNKEKGSFDLSKKYIYITDNNNQLIAQYAYKMNSRTNQWILEKDALTPIYENIYATTR”, “not failed”; to “TQIQNRTRRAKRALAARGLTEAVTWSFISKPFAEAFGGGQPELALANPIASDLSDMRPSLLPGLIAAAQANADRGSPDLALFEVGQVFKGDRPQDQFMAASGVRRGVASSAGLGRHWSGSAQATALDAKADAFAVLAAAGAPMAGLQIATNKLPAWLHPGRSGAIQIGPQNVLGYFGELHPRVLEQLGADGPLVAFEVILEKIP”, “not failed”. The result for “TQVADNEYLVQGRMLIDEFNEVFETDLHMSDVDTMAGYLITALGTIPDEGEKPSFEVGNIKLTAEEMEGTRLLVLRVHFYDEETVDEEPEENRRFFRKEMEDDEPRR” reads “not failed”; that for “TSTFYELFPKTFPKKLPIWTIDQSRLRKEYRQLQAQHHPDMAQQGSEQSSTLNQAYHTLKDPLRRSQYMLKLLRNI”, “failed”. With “TTESLYAFSRKLAGTAALDDVLWATAYQIALMLKVRVVLLLPEQGRIAVKAGYPPEDQLDPADLAAANWAWENDRVAGRGSDTLPGAKRLFLPMRTGRGPIGVIGIDDDRAGALLTPDQRRLLDALTDQGALAIERVHLVEDMDRVKR”, the protein production result is listed as “failed”. Turning to “TTHKFEHPLNEKTRIYLRVESLLRQAHLASGFADNHQYQLFFRALFDMVEIFEQIQLKSELAKDLEKQRLSYRHWLNVEGVDQEALNSLLNEIDVVHSQLMGAERFGQALKEDRFLSSIRQRFNLPGGSCCFDLPALHYWLHLPIERKKHDANQWQKSLKPLSDALTLWLKLARETGHFKAQIARAGFFQSDADEANILRLHIPMKYGVYPMISGHKNRFAIKFMAFENGQACSQDVEFELAVC”, the protein production result is given as “not failed”.

In the case of “TVGILWVNWDSHVRYANRAAEEMLGYPAGGVIDRPLIDFEPNLHMDRWLNLWKRARASEEGVQSFETQCVRADGSILPADVSLSFLRFRDSEYLVVYLNDV”, the protein production entry was “failed”. The result for “TVVNDPSCESVVTTPQHSLRDANSPAGLLSIAEETLAEFLSKATGTAVDWVQMPGMKPGPDSVGIFAISQRCNGVAARACGLVSLEPMKIAEILKDRPSWFRDCRSLEVFTMFPAGNGGTIELVYMQTYAPTTLAPARDFWTLRYTTSLDNGSFVVCERSLSGSGAGPNAASASQFVRAEMLSSGYLIRPCDGGGSIIHIVDHLNLEAWSVPDVLRPLYESSKVVAQKMTISALRYIRQLAQESNGEVVYGLGRQPAVLRTFSQRLSRGFNDAVNGFGDDGWSTMHCDGAEDIIVAINSTKHLTNISNSV” reads “not failed”. With “VAASWREQFIRAEQTHWDAVTETASETYWEGGVLSDVTALAPDPATLFISNSMPIRDMDRFGGPRDADLTVLGNRGASGIDGITSTALGAGSATSDPLVLVTGDLAYYHDMNGLLALGRCAVDATVVLLNNDGGGIFHMLPIEDHPTFEDQFRTPHGLDFEPTEALYSLQFERVADRRQFRERFAESVQTDGTQVIEVRFDAGDSHAVRDQLTE”, the protein production entry is “failed”. To “VDEKALKHITEMGFSKEASRQALMDNGNNLEAALNVLLTSNKQKPVMGPP” belongs “not failed”; to “VDICNHALLVGYGRVGSLLGEKLLASDIPLVVIETSRTRVDELRERGVRAVLGNAANEEIMQLAHLECAKWLILTIPNGYEAGEIVASARAKNPDIEIIARAHYDDEVAYITERGANQVVMGEREIARTMLELLETPPAGEVVTR”, “not failed”. With “VDKVDSREEKITEKFDEPATYIEDAEQLEGEETLVTPGTQGERTVTRKIVTVNGVETANEVVNEEIITPGVAATIKRGAKK”, the protein production result is “failed”. Turning to “VDQLFFSTTDAQGRIQETNNTFVELSRYTEEELRNAAHNIIRHPFMPGGVFKIMWDKLQRGETFAGYVRNLAHSGETYDVFATVTPIPGTHD”, the protein production entry is reported as “failed”. The result for “VDRDYLQSEYGVLKAGQCYKVVRSFRDYRNINYERGDVMRFLGSNFVPYESGLSLFFDKNGSERQIMLCVRPEFQMEIAHHLDSYFCKLDDN” reads “not failed”; that for “VDWTDAERSAIVGLWGKISVDEIGPQALARLLIVSPWTQRHFSTFGNLSTPAAIMGNPAVAKHGKTVMHGLDRAVQNLDDIKNTYATLSVMHSEKLHVDPDNFRLLADCITVCVAAKLGPAVFSADTQEAFQKFLAVVVSALGRQYH”, “not failed”. To “VELLQVDADLQAEIVGKYNADLQKAVQIEEKKAREIATEAVKEHVTAEYEERYAEHEEHDRIMRDVAEILEQMEHAEVRRLITEDKVRPD” belongs “not failed”.
